Target: EphA2 ligand-binding domain, untagged (UniProt P29317)
Assay: SEC

Sequence of EphA2 ligand-binding domain, untagged (P29317 24-206): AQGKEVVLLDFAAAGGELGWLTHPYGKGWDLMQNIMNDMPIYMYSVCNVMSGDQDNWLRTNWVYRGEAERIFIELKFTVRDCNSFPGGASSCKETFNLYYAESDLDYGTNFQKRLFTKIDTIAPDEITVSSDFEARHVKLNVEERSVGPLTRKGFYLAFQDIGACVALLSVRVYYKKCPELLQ

stoichiometry N: 1
B1: D2 scFv-6xHis (monomeric anti-EphA2 single-chain antibody) (scFv, V domains shown)
VH: EVQLLESGGGLVQPGGSLRLSCAASGFTFSRYWMHWVRQAPGKGLEWVSSISPYDGETNYADSVKGRFTISRDNSKNTLYLQMNSLRAEDTAVYYCARISEWYNWAVDVFDYWGQGTLVTVSS
VL: EIVLTQSPGTLSLSPGERATLSCRASQSVSSSNLAWYQQKPGQAPRLLIYGASSRATGVPDRFSGSGSGTDFTLTISRLEPEDFAVYYCQQSSSYPWTFGQGTKVEIK
